Measured values taken from paper PMC7764960, “Nucleus Accumbens-Associated Protein 1 Binds DNA Directly through the BEN Domain in a Sequence-Specific Manner”.

What was measured:
GST-NAC1 = target: T1, GST-NAC1 (Homo sapiens, UniProt Q96RE7 2-527); assay: pull-down; poly(dI/dC); ITC: 20 mM HEPES pH 7.0, 0.1 M NaCl, 1 mM TCEP, 20 C (Fig 2 legend says 25 C); pull-down: 4 C with 10 ug poly(dI/dC), buffer not stated; NMR 298 K; conditions: protein: recombinant; tags: GST N-term; chain copies: 2; label: 5' biotin on sense strand; blunt
T1 sequence: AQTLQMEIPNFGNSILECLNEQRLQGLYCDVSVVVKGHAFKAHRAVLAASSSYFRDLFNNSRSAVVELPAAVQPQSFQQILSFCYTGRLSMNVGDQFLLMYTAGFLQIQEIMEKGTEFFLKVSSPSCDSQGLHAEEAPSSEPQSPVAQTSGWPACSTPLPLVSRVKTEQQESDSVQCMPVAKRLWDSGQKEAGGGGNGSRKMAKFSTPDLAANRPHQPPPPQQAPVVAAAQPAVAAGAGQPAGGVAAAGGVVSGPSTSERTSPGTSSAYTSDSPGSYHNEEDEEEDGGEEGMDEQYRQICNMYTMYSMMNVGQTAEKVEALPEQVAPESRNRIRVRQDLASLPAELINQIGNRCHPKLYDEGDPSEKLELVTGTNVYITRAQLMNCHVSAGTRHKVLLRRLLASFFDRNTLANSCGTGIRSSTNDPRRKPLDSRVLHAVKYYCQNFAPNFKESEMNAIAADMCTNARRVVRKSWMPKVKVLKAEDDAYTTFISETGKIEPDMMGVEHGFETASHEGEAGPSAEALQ

NAC1 (322-485) [1] = target: T2, NAC1 (322-485) (Homo sapiens, UniProt Q96RE7 322-485); assay: ITC; single event; ITC: 20 mM HEPES pH 7.0, 0.1 M NaCl, 1 mM TCEP, 20 C (Fig 2 legend says 25 C); pull-down: 4 C with 10 ug poly(dI/dC), buffer not stated; NMR 298 K; conditions: protein: recombinant; tags: His (pET28HisTEV); blunt
T2 sequence: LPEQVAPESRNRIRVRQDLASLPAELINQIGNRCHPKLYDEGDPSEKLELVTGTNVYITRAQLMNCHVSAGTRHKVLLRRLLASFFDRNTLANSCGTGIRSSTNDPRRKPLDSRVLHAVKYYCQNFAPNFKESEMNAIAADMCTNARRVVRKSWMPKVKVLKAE

NAC1 (322-485) [2] = target: T2, NAC1 (322-485); assay: ITC; first of two sequential events (Kd1); ITC: 20 mM HEPES pH 7.0, 0.1 M NaCl, 1 mM TCEP, 20 C (Fig 2 legend says 25 C); pull-down: 4 C with 10 ug poly(dI/dC), buffer not stated; NMR 298 K; conditions: protein: recombinant; tags: His (pET28HisTEV); blunt
NAC1 (322-485) [3] = target: T2, NAC1 (322-485); assay: ITC; single event; Table S2 prints 0.83; ITC: 20 mM HEPES pH 7.0, 0.1 M NaCl, 1 mM TCEP, 20 C (Fig 2 legend says 25 C); pull-down: 4 C with 10 ug poly(dI/dC), buffer not stated; NMR 298 K; conditions: protein: recombinant; tags: His (pET28HisTEV); blunt

B1: Biotin-GP1 3'-mut (dsDNA)
DNA 1: TGTGTGTGTATGCATGACGGTATTTATT
DNA 2: AATAAATACCGTCATGCATACACACACA
B1: binds (GST-NAC1).

B2: de novo motif 1 (dsDNA)
DNA 1: AACCGCCGCCAA
DNA 2: TTGGCGGCGGTT
With B2 the Kd (NAC1 (322-485) [1]) was 3000 nM.

B3: Biotin-GP1 (dsDNA)
DNA 1: TGTGTGTGTATGCATGTATGTATTTATT
DNA 2: AATAAATACATACATGCATACACACACA
B3: binds (GST-NAC1).

B4: GP1 14-mer dsDNA (dsDNA)
DNA 1: GTATGCATGTATGT
DNA 2: ACATACATGCATAC
In the case of B4, the Kd (NAC1 (322-485) [2]) is reported as 160 nM.

B5: de novo motif 2 (dsDNA)
DNA 1: AACCCCGCCCCAA
DNA 2: TTGGGGCGGGGTT
B5 gave a Kd (NAC1 (322-485) [3]) of 820 nM.

B6: Biotin-GP1 5'-mut (dsDNA)
DNA 1: TGTGTGTGTCATCATGTATGTATTTATT
DNA 2: AATAAATACATACATGATGACACACACA
B6: binds (GST-NAC1).
